Results: article PMC9852224

Legend:
BAK = BAK (UniProt Q16611); assay: FLAG co-immunoprecipitation, immunoblot; conditions: reference: WT-FLAG-MCL-1; sites T163
Noxa = Noxa (UniProt Q13794); assay: FLAG co-immunoprecipitation, immunoblot; conditions: reference: WT-FLAG-MCL-1; sites T163
[1] = target: Mule (preparation of Supplemental Figure 3D, not told) (UniProt Q7Z6Z7)

Substance	binding against the reference (BAK)	binding against the reference (Noxa)	stoichiometry N [1]
Mcl-1 (from UniProt Q07820) T163A-FLAG-MCL-1	lost	lost	
Mule (preparation of Supplemental Figure 3D, not told) (from UniProt Q7Z6Z7 1-4374) (natural protein)			2
